Experimental data reported in patent US20180155406A1 (Sanofi, published 2018).
Numbered stars: 1 amine (or outer) side, 2 acyl side, 3 side chain; on linkers, the order of the positions; unused ones are H or OH. Square brackets hold non-standard residues; d marks the D form. Side chains are listed from the residue outwards. Ends that are not written are not given here. * marks the point of attachment. γGlu = O=C(O)[C@H](CCC(=O)[*:2])N[*:1]; Stearoyl = CCCCCCCCCCCCCCCCCC(=O)*; Palmitoyl = CCCCCCCCCCCCCCCC(=O)*; gAAA = not defined here; AEEA = NCCOCCOCC(=O)O; Aib = CC(C)(N)C(=O)O

Tests used:
Test in all cases: cell-based or functional assay
[1] = target: human GLP-1 receptor (human) (UniProt P43220)
Chain of human GLP-1 receptor (human) (P43220 24-463): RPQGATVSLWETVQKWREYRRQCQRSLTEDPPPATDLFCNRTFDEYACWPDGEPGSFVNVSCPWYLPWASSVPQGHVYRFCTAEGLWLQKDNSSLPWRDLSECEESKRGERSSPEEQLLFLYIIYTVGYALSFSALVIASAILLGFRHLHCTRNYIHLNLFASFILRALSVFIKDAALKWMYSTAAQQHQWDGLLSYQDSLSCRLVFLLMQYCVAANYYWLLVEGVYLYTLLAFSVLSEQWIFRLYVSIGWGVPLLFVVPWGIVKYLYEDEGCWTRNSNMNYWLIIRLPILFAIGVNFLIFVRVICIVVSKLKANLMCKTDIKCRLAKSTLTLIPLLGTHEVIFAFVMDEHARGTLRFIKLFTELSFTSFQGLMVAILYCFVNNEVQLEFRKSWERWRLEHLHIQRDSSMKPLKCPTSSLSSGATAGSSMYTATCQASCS

[2] = target: human glucagon receptor (human) (UniProt P47871)
Chain of human glucagon receptor (human) (P47871 26-477): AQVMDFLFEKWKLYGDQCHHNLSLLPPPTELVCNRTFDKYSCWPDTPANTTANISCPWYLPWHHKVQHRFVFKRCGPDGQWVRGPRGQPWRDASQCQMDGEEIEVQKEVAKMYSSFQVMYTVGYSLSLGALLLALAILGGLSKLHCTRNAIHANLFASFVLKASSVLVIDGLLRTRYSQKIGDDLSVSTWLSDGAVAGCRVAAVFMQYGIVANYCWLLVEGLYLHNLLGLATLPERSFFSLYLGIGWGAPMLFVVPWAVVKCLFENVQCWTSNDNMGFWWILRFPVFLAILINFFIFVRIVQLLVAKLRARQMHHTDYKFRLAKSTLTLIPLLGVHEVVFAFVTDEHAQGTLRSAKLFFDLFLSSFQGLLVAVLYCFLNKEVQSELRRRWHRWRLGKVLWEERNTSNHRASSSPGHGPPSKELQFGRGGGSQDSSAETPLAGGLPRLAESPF

[3] = target: T1, human GIP receptor (human, UniProt P48546 22-466)
T1 sequence (looked up): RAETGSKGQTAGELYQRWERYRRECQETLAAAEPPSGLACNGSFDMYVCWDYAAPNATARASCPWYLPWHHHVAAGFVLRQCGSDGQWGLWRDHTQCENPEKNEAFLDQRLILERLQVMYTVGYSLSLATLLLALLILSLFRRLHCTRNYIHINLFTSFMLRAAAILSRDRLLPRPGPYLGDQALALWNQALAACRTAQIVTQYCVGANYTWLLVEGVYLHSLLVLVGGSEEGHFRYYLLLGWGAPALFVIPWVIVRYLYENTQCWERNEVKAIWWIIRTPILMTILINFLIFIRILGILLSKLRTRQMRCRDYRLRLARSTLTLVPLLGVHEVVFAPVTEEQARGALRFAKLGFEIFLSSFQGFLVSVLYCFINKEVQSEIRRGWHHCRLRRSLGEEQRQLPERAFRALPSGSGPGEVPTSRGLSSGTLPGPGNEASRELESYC

[4] = target: T2, human glucagon receptor (human, UniProt P47871 26-477)
T2 sequence (P47871 26-477): as the sequence (P47871 26-477) above

[5] = target: human GLP-1 receptor (human, UniProt P43220 24-463)
[6] = target: T2, human glucagon receptor; remark: listed apart in the source

exendin-4 (peptide)
EC50 hGLP-1 R [pM] (cAMP formation) [1]: 0.4 pM
EC50 hGlucagon R [pM] (cAMP formation) [2]: > 1e+07 pM

B1: SEQ ID NO: 22 (peptide)
peptide: H[Aib]HGTFTSDLSKLK([γGlu-AEEA-gAAA-Palmitoyl])EEQRQKEFIEWLKAGGHPS[Aib]KPPPK-NH2
modifications: reading uncertain
EC50 hGIP R (cAMP formation) [3]: 1.1 pM
EC50 hGlucagon R (cAMP formation) [4]: 5.9 pM
EC50 hGLP-1R (cAMP formation) [5]: 1 pM

B2: SEQ ID NO: 6 (peptide)
peptide: H[Aib]HGTFTSDLSKLK([γGlu-γGlu-Palmitoyl])EEQRQKEFIEWLKAGGHPS[Aib]KPPPK-NH2
modifications: N-terminus assumed
SMILES: CCCCCCCCCCCCCCCC(=O)N[C@@H](CCC(=O)N[C@@H](CCC(=O)NCCCC[C@H](NC(=O)[C@H](CC(C)C)NC(=O)[C@H](CCCCN)NC(=O)[C@H](CO)NC(=O)[C@H](CC(C)C)NC(=O)[C@H](CC(=O)O)NC(=O)[C@H](CO)NC(=O)[C@@H](NC(=O)[C@H](Cc1ccccc1)NC(=O)[C@@H](NC(=O)CNC(=O)[C@H](Cc1c[nH]cn1)NC(=O)C(C)(C)NC(=O)[C@@H](N)Cc1c[nH]cn1)[C@@H](C)O)[C@@H](C)O)C(=O)N[C@@H](CCC(=O)O)C(=O)N[C@@H](CCC(=O)O)C(=O)N[C@@H](CCC(N)=O)C(=O)N[C@@H](CCCNC(=N)N)C(=O)N[C@@H](CCC(N)=O)C(=O)N[C@@H](CCCCN)C(=O)N[C@@H](CCC(=O)O)C(=O)N[C@@H](Cc1ccccc1)C(=O)N[C@H](C(=O)N[C@@H](CCC(=O)O)C(=O)N[C@@H](Cc1c[nH]c2ccccc12)C(=O)N[C@@H](CC(C)C)C(=O)N[C@@H](CCCCN)C(=O)N[C@@H](C)C(=O)NCC(=O)NCC(=O)N[C@@H](Cc1c[nH]cn1)C(=O)N1CCC[C@H]1C(=O)N[C@@H](CO)C(=O)NC(C)(C)C(=O)N[C@@H](CCCCN)C(=O)N1CCC[C@H]1C(=O)N1CCC[C@H]1C(=O)N1CCC[C@H]1C(=O)N[C@@H](CCCCN)C(N)=O)[C@@H](C)CC)C(=O)O)C(=O)O
EC50 hGIP R (cAMP formation) [3]: 2.1 pM
EC50 hGlucagon R (cAMP formation) [4]: 2.3 pM
EC50 hGLP-1R (cAMP formation) [5]: 1.4 pM

B3: SEQ ID NO: 21 (peptide)
peptide: H[Aib]HGTFTSDLSKLK([γGlu-Stearoyl])EEQRQKEFIEWLKAGGPPS[Aib]KPPPK-NH2
modifications: N-terminus assumed
SMILES: CCCCCCCCCCCCCCCCCC(=O)N[C@@H](CCC(=O)NCCCC[C@H](NC(=O)[C@H](CC(C)C)NC(=O)[C@H](CCCCN)NC(=O)[C@H](CO)NC(=O)[C@H](CC(C)C)NC(=O)[C@H](CC(=O)O)NC(=O)[C@H](CO)NC(=O)[C@@H](NC(=O)[C@H](Cc1ccccc1)NC(=O)[C@@H](NC(=O)CNC(=O)[C@H](Cc1c[nH]cn1)NC(=O)C(C)(C)NC(=O)[C@@H](N)Cc1c[nH]cn1)[C@@H](C)O)[C@@H](C)O)C(=O)N[C@@H](CCC(=O)O)C(=O)N[C@@H](CCC(=O)O)C(=O)N[C@@H](CCC(N)=O)C(=O)N[C@@H](CCCNC(=N)N)C(=O)N[C@@H](CCC(N)=O)C(=O)N[C@@H](CCCCN)C(=O)N[C@@H](CCC(=O)O)C(=O)N[C@@H](Cc1ccccc1)C(=O)N[C@H](C(=O)N[C@@H](CCC(=O)O)C(=O)N[C@@H](Cc1c[nH]c2ccccc12)C(=O)N[C@@H](CC(C)C)C(=O)N[C@@H](CCCCN)C(=O)N[C@@H](C)C(=O)NCC(=O)NCC(=O)N1CCC[C@H]1C(=O)N1CCC[C@H]1C(=O)N[C@@H](CO)C(=O)NC(C)(C)C(=O)N[C@@H](CCCCN)C(=O)N1CCC[C@H]1C(=O)N1CCC[C@H]1C(=O)N1CCC[C@H]1C(=O)N[C@@H](CCCCN)C(N)=O)[C@@H](C)CC)C(=O)O
EC50 hGIP R (cAMP formation) [3]: 2.6 pM
EC50 hGlucagon R (cAMP formation) [4]: 1.9 pM
EC50 hGLP-1R (cAMP formation) [5]: 3.4 pM

B4: SEQ ID NO: 19 (peptide)
peptide: H[Aib]HGTFTSDLSKLK([γGlu-Stearoyl])EEQRQ[Aib]EFIEWLKAGGPPS[Aib]KPPPK-NH2
modifications: N-terminus assumed
SMILES: CCCCCCCCCCCCCCCCCC(=O)N[C@@H](CCC(=O)NCCCC[C@H](NC(=O)[C@H](CC(C)C)NC(=O)[C@H](CCCCN)NC(=O)[C@H](CO)NC(=O)[C@H](CC(C)C)NC(=O)[C@H](CC(=O)O)NC(=O)[C@H](CO)NC(=O)[C@@H](NC(=O)[C@H](Cc1ccccc1)NC(=O)[C@@H](NC(=O)CNC(=O)[C@H](Cc1c[nH]cn1)NC(=O)C(C)(C)NC(=O)[C@@H](N)Cc1c[nH]cn1)[C@@H](C)O)[C@@H](C)O)C(=O)N[C@@H](CCC(=O)O)C(=O)N[C@@H](CCC(=O)O)C(=O)N[C@@H](CCC(N)=O)C(=O)N[C@@H](CCCNC(=N)N)C(=O)N[C@@H](CCC(N)=O)C(=O)NC(C)(C)C(=O)N[C@@H](CCC(=O)O)C(=O)N[C@@H](Cc1ccccc1)C(=O)N[C@H](C(=O)N[C@@H](CCC(=O)O)C(=O)N[C@@H](Cc1c[nH]c2ccccc12)C(=O)N[C@@H](CC(C)C)C(=O)N[C@@H](CCCCN)C(=O)N[C@@H](C)C(=O)NCC(=O)NCC(=O)N1CCC[C@H]1C(=O)N1CCC[C@H]1C(=O)N[C@@H](CO)C(=O)NC(C)(C)C(=O)N[C@@H](CCCCN)C(=O)N1CCC[C@H]1C(=O)N1CCC[C@H]1C(=O)N1CCC[C@H]1C(=O)N[C@@H](CCCCN)C(N)=O)[C@@H](C)CC)C(=O)O
EC50 hGIP R (cAMP formation) [3]: 4 pM
EC50 hGlucagon R (cAMP formation) [4]: 3.1 pM
EC50 hGLP-1R (cAMP formation) [5]: 6.1 pM

B5: SEQ ID NO: 23 (peptide)
peptide: H[Aib]HGTFTSDLSKLK([γGlu-AEEA-gAAA-Palmitoyl])EEQRQKEFIEWLKA[dA]GHPS[Aib]KPPPK-NH2
modifications: reading uncertain
EC50 hGIP R (cAMP formation) [3]: 1.5 pM
EC50 hGlucagon R (cAMP formation) [4]: 6.8 pM
EC50 hGLP-1R (cAMP formation) [5]: 1.4 pM

B6: SEQ ID NO: 28 (peptide)
peptide: HXQGTFTSDLSKQKDEQRAKEFIEWLKAGGPSSGAPPPS
modifications: Aib at 2; Lys14 side chain acylated with gGlu-Stea; C-terminal amide
EC50 hGlucagon-R [6]: 1.9 pM

B7: SEQ ID NO: 20 (peptide)
peptide: H[Aib]HGTFTSDLSKLK([γGlu-Palmitoyl])EEQRQKEFIEWLKAGGPPS[Aib]KPPPK-NH2
modifications: N-terminus assumed
SMILES: CCCCCCCCCCCCCCCC(=O)N[C@@H](CCC(=O)NCCCC[C@H](NC(=O)[C@H](CC(C)C)NC(=O)[C@H](CCCCN)NC(=O)[C@H](CO)NC(=O)[C@H](CC(C)C)NC(=O)[C@H](CC(=O)O)NC(=O)[C@H](CO)NC(=O)[C@@H](NC(=O)[C@H](Cc1ccccc1)NC(=O)[C@@H](NC(=O)CNC(=O)[C@H](Cc1c[nH]cn1)NC(=O)C(C)(C)NC(=O)[C@@H](N)Cc1c[nH]cn1)[C@@H](C)O)[C@@H](C)O)C(=O)N[C@@H](CCC(=O)O)C(=O)N[C@@H](CCC(=O)O)C(=O)N[C@@H](CCC(N)=O)C(=O)N[C@@H](CCCNC(=N)N)C(=O)N[C@@H](CCC(N)=O)C(=O)N[C@@H](CCCCN)C(=O)N[C@@H](CCC(=O)O)C(=O)N[C@@H](Cc1ccccc1)C(=O)N[C@H](C(=O)N[C@@H](CCC(=O)O)C(=O)N[C@@H](Cc1c[nH]c2ccccc12)C(=O)N[C@@H](CC(C)C)C(=O)N[C@@H](CCCCN)C(=O)N[C@@H](C)C(=O)NCC(=O)NCC(=O)N1CCC[C@H]1C(=O)N1CCC[C@H]1C(=O)N[C@@H](CO)C(=O)NC(C)(C)C(=O)N[C@@H](CCCCN)C(=O)N1CCC[C@H]1C(=O)N1CCC[C@H]1C(=O)N1CCC[C@H]1C(=O)N[C@@H](CCCCN)C(N)=O)[C@@H](C)CC)C(=O)O
EC50 hGIP R (cAMP formation) [3]: 1.9 pM
EC50 hGlucagon R (cAMP formation) [4]: 4.2 pM
EC50 hGLP-1R (cAMP formation) [5]: 4.8 pM
